Source: patent US20140087995A1 (published 2014)
Numbered stars: 1 amine (or outer) side, 2 acyl side, 3 side chain; on linkers, the order of the positions; unused ones are H or OH. Bridge positions count the residues as written; N and C are the ends. Side chains are listed from the residue outwards. Ends that are not written are not given here. * marks the point of attachment. C20 diacid = O=C(O)CCCCCCCCCCCCCCCCCCC(=O)*; γGlu = O=C(O)[C@H](CCC(=O)[*:2])N[*:1]; AEEA = NCCOCCOCC(=O)O

T1: human calcitonin receptor (human, UniProt P30988 25-474)
T1 construct: whole, on cells; also called hCTR; hCT
T1 sequence (looked up): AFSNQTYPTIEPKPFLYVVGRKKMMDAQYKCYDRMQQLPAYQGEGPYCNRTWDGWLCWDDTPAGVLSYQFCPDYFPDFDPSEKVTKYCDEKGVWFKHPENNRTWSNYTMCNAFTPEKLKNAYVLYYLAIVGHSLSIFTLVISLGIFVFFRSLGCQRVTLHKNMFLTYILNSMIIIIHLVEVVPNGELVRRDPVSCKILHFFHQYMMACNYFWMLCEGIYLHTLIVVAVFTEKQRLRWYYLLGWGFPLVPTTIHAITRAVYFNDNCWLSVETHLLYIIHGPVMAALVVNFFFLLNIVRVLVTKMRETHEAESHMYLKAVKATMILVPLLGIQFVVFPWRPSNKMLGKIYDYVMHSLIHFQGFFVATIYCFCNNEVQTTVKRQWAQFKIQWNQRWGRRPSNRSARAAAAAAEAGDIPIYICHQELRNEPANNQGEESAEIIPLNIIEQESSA


target: T1, human calcitonin receptor; assay: SPA competition with 125I-calcitonin, membranes of BHK hCTR cells (Assay VII)
Outline: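 BHK hCTR membranes 35 ng/μL + SPA beads 0.05 mg/well; buffer 50 mM Hepes pH 7.4, 1 mM CaCl2, 5 mM MgCl₂, 0.1% OA, 0.02% Tween20. 120 min, 25° C., shaking. Scintillation count; IC50 by one-site binding competition.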

IC50	Binder
0.00953 µM	{C20 diacid-γGlu}-GRCNTATCATQRLANFLRHSSPNFGAIPSSTNVGSNTY-NH2 (disulfide 3-8; SMILES CC[C@H](C)[C@H](NC(=O)[C@H](C)NC(=O)CNC(=O)[C@H](Cc1ccccc1)NC(=O)[C@H](CC(N)=O)NC(=O)[C@@H]1CCCN1C(=O)[C@H](CO)NC(=O)[C@H](CO)NC(=O)[C@H](Cc1c[nH]cn1)NC(=O)[C@H](CCCNC(=N)N)NC(=O)[C@H](CC(C)C)NC(=O)[C@H](Cc1ccccc1)NC(=O)[C@H](CC(N)=O)NC(=O)[C@H](C)NC(=O)[C@H](CC(C)C)NC(=O)[C@H](CCCNC(=N)N)NC(=O)[C@H](CCC(N)=O)NC(=O)[C@@H](NC(=O)[C@H](C)NC(=O)[C@@H]1CSSC[C@H](NC(=O)[C@H](CCCNC(=N)N)NC(=O)CNC(=O)CC[C@H](NC(=O)CCCCCCCCCCCCCCCCCCC(=O)O)C(=O)O)C(=O)N[C@@H](CC(N)=O)C(=O)N[C@@H]([C@@H](C)O)C(=O)N[C@@H](C)C(=O)N[C@@H]([C@@H](C)O)C(=O)N1)[C@@H](C)O)C(=O)N1CCC[C@H]1C(=O)N[C@@H](CO)C(=O)N[C@@H](CO)C(=O)N[C@H](C(=O)N[C@@H](CC(N)=O)C(=O)N[C@H](C(=O)NCC(=O)N[C@@H](CO)C(=O)N[C@@H](CC(N)=O)C(=O)N[C@H](C(=O)N[C@@H](Cc1ccc(O)cc1)C(N)=O)[C@@H](C)O)C(C)C)[C@@H](C)O, also called compound 46) [N^-1-[(4S)-4-carboxy-4-(19-carboxynonadecanoylamino)butanoyl]-Gly[Arg1,Arg17,Pro21,Pro27]-h-amylin]
0.0148 µM	K([AEEA-γGlu-C20 diacid])RCNTATCATQRLANFLRHSSPNFGAIPSSTNVGSHTY-NH2 (disulfide 3-8; N-terminus assumed; SMILES CC[C@H](C)[C@H](NC(=O)[C@H](C)NC(=O)CNC(=O)[C@H](Cc1ccccc1)NC(=O)[C@H](CC(N)=O)NC(=O)[C@@H]1CCCN1C(=O)[C@H](CO)NC(=O)[C@H](CO)NC(=O)[C@H](Cc1c[nH]cn1)NC(=O)[C@H](CCCNC(=N)N)NC(=O)[C@H](CC(C)C)NC(=O)[C@H](Cc1ccccc1)NC(=O)[C@H](CC(N)=O)NC(=O)[C@H](C)NC(=O)[C@H](CC(C)C)NC(=O)[C@H](CCCNC(=N)N)NC(=O)[C@H](CCC(N)=O)NC(=O)[C@@H](NC(=O)[C@H](C)NC(=O)[C@@H]1CSSC[C@H](NC(=O)[C@H](CCCNC(=N)N)NC(=O)[C@@H](N)CCCCNC(=O)COCCOCCNC(=O)CC[C@H](NC(=O)CCCCCCCCCCCCCCCCCCC(=O)O)C(=O)O)C(=O)N[C@@H](CC(N)=O)C(=O)N[C@@H]([C@@H](C)O)C(=O)N[C@@H](C)C(=O)N[C@@H]([C@@H](C)O)C(=O)N1)[C@@H](C)O)C(=O)N1CCC[C@H]1C(=O)N[C@@H](CO)C(=O)N[C@@H](CO)C(=O)N[C@H](C(=O)N[C@@H](CC(N)=O)C(=O)N[C@H](C(=O)NCC(=O)N[C@@H](CO)C(=O)N[C@@H](Cc1c[nH]cn1)C(=O)N[C@H](C(=O)N[C@@H](Cc1ccc(O)cc1)C(N)=O)[C@@H](C)O)C(C)C)[C@@H](C)O, also called compound 45)

Further lines, the binder ahead of its results:

Binder	IC50
K([AEEA-γGlu-C20 diacid])CNTATCATQRLANFLRHSSPNFGAIPSSTNVGSNTY-NH2 (disulfide 2-7; N-terminus assumed; SMILES CC[C@H](C)[C@H](NC(=O)[C@H](C)NC(=O)CNC(=O)[C@H](Cc1ccccc1)NC(=O)[C@H](CC(N)=O)NC(=O)[C@@H]1CCCN1C(=O)[C@H](CO)NC(=O)[C@H](CO)NC(=O)[C@H](Cc1c[nH]cn1)NC(=O)[C@H](CCCNC(=N)N)NC(=O)[C@H](CC(C)C)NC(=O)[C@H](Cc1ccccc1)NC(=O)[C@H](CC(N)=O)NC(=O)[C@H](C)NC(=O)[C@H](CC(C)C)NC(=O)[C@H](CCCNC(=N)N)NC(=O)[C@H](CCC(N)=O)NC(=O)[C@@H](NC(=O)[C@H](C)NC(=O)[C@@H]1CSSC[C@H](NC(=O)[C@@H](N)CCCCNC(=O)COCCOCCNC(=O)CC[C@H](NC(=O)CCCCCCCCCCCCCCCCCCC(=O)O)C(=O)O)C(=O)N[C@@H](CC(N)=O)C(=O)N[C@@H]([C@@H](C)O)C(=O)N[C@@H](C)C(=O)N[C@@H]([C@@H](C)O)C(=O)N1)[C@@H](C)O)C(=O)N1CCC[C@H]1C(=O)N[C@@H](CO)C(=O)N[C@@H](CO)C(=O)N[C@H](C(=O)N[C@@H](CC(N)=O)C(=O)N[C@H](C(=O)NCC(=O)N[C@@H](CO)C(=O)N[C@@H](CC(N)=O)C(=O)N[C@H](C(=O)N[C@@H](Cc1ccc(O)cc1)C(N)=O)[C@@H](C)O)C(C)C)[C@@H](C)O, also called compound 41)	0.0213 µM
{C20 diacid-γGlu}-GRCNTATCATQRLANFLRHSSPNFGAIPSSTNVGSHTY-NH2 (disulfide 3-8; SMILES CC[C@H](C)[C@H](NC(=O)[C@H](C)NC(=O)CNC(=O)[C@H](Cc1ccccc1)NC(=O)[C@H](CC(N)=O)NC(=O)[C@@H]1CCCN1C(=O)[C@H](CO)NC(=O)[C@H](CO)NC(=O)[C@H](Cc1c[nH]cn1)NC(=O)[C@H](CCCNC(=N)N)NC(=O)[C@H](CC(C)C)NC(=O)[C@H](Cc1ccccc1)NC(=O)[C@H](CC(N)=O)NC(=O)[C@H](C)NC(=O)[C@H](CC(C)C)NC(=O)[C@H](CCCNC(=N)N)NC(=O)[C@H](CCC(N)=O)NC(=O)[C@@H](NC(=O)[C@H](C)NC(=O)[C@@H]1CSSC[C@H](NC(=O)[C@H](CCCNC(=N)N)NC(=O)CNC(=O)CC[C@H](NC(=O)CCCCCCCCCCCCCCCCCCC(=O)O)C(=O)O)C(=O)N[C@@H](CC(N)=O)C(=O)N[C@@H]([C@@H](C)O)C(=O)N[C@@H](C)C(=O)N[C@@H]([C@@H](C)O)C(=O)N1)[C@@H](C)O)C(=O)N1CCC[C@H]1C(=O)N[C@@H](CO)C(=O)N[C@@H](CO)C(=O)N[C@H](C(=O)N[C@@H](CC(N)=O)C(=O)N[C@H](C(=O)NCC(=O)N[C@@H](CO)C(=O)N[C@@H](Cc1c[nH]cn1)C(=O)N[C@H](C(=O)N[C@@H](Cc1ccc(O)cc1)C(N)=O)[C@@H](C)O)C(C)C)[C@@H](C)O, also called compound 47)	0.0155 µM
K([AEEA-C20 diacid])CNTATCATQRLANFLRHSSPNFGAIPSSTNVGSNTY-NH2 (disulfide 2-7; N-terminus assumed; SMILES CC[C@H](C)[C@H](NC(=O)[C@H](C)NC(=O)CNC(=O)[C@H](Cc1ccccc1)NC(=O)[C@H](CC(N)=O)NC(=O)[C@@H]1CCCN1C(=O)[C@H](CO)NC(=O)[C@H](CO)NC(=O)[C@H](Cc1c[nH]cn1)NC(=O)[C@H](CCCNC(=N)N)NC(=O)[C@H](CC(C)C)NC(=O)[C@H](Cc1ccccc1)NC(=O)[C@H](CC(N)=O)NC(=O)[C@H](C)NC(=O)[C@H](CC(C)C)NC(=O)[C@H](CCCNC(=N)N)NC(=O)[C@H](CCC(N)=O)NC(=O)[C@@H](NC(=O)[C@H](C)NC(=O)[C@@H]1CSSC[C@H](NC(=O)[C@@H](N)CCCCNC(=O)COCCOCCNC(=O)CCCCCCCCCCCCCCCCCCC(=O)O)C(=O)N[C@@H](CC(N)=O)C(=O)N[C@@H]([C@@H](C)O)C(=O)N[C@@H](C)C(=O)N[C@@H]([C@@H](C)O)C(=O)N1)[C@@H](C)O)C(=O)N1CCC[C@H]1C(=O)N[C@@H](CO)C(=O)N[C@@H](CO)C(=O)N[C@H](C(=O)N[C@@H](CC(N)=O)C(=O)N[C@H](C(=O)NCC(=O)N[C@@H](CO)C(=O)N[C@@H](CC(N)=O)C(=O)N[C@H](C(=O)N[C@@H](Cc1ccc(O)cc1)C(N)=O)[C@@H](C)O)C(C)C)[C@@H](C)O, also called compound 43) [N^ε1-[2-[2-[2-(19-carboxynonadecanoylamino)ethoxy]ethoxy]acetyl]-[Arg17,Pro21,Pro27]-h-amylin]	0.00264 µM
